Results taken from paper PMC2637360 (Structure (London, England : 1993), 2008).

Molecular target: the molecule itself
Assay: crystal structure

B1: N141A HincII (enzyme)
chain: MSFIKPIYQDINSILIGQKVKRPKSGTLSGHAAGEPFEKLVYKFLKENLSDLTFKQYEYLNDLFMKNPAIIGHEARYKLFNSPTLLFLLSRGKAATENWSIENLFEEKQNDTADILLVKDQFYELLDVKRRNISKSAQAPAIISAYKLAQTCAKMIDNKEFDLFDINYLEVDSELNGEDLVCVSTSFAELFKSEPSELYINWAAAMQIQFHVRDLDQGFNGTREEWAKSYLKHFVTQAEQRAISMIDKFVKPFKKYIL
stoichiometry N: 2
